Assay [1] concerns the target T1, human CEA (Carcinoembryonic antigen, CEACAM5) on tumor cells (human, UniProt P06731 35-685, The C-terminal Ala685 carries the GPI anchor. The protein is heavily N-glycosylated.).
T1 sequence: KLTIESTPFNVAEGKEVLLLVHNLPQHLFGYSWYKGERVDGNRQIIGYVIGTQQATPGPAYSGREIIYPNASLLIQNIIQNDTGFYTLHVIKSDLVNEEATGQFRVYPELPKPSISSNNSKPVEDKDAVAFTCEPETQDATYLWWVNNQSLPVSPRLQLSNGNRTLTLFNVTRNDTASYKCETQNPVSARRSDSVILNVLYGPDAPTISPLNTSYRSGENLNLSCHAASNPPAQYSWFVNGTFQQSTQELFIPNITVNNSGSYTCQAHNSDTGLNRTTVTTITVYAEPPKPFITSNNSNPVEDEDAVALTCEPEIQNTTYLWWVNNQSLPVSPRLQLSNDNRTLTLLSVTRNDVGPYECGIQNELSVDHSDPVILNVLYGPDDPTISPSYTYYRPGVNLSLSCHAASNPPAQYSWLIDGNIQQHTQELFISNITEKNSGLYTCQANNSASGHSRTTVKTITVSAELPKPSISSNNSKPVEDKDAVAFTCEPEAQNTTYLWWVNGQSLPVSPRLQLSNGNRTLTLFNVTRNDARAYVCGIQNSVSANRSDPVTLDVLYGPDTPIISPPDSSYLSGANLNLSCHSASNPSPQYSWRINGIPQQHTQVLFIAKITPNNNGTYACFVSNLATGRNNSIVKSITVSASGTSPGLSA
Put plainly: cell-based or functional assay.

Assay [2] concerns the target T2, human CD3 on Jurkat cells (Homo sapiens, UniProt P07766).
T2 construct: native, on the surface of the Jurkat human T cell line; also called CD3+ cells (Jurkat)
Put plainly: flow cytometry on Jurkat cells (human CD3), FITC-conjugated anti-human IgG F(ab')2 secondary antibody, median fluorescence intensity. The procedure:
(§1) An untargeted TCB (SEQ ID NOs: 59, 60, 61 and 62; see example 24) was used as control. Briefly, cells were harvested, counted, checked for viability and resuspended at 2×10⁶ cells/ml in FACS buffer (100 μl PBS 0.1% BSA).

Assay [3] has as its target T1, human CEA (Carcinoembryonic antigen, …). As to the kind of experiment: cell-based or functional assay. The source holds these as a separate data set.
Assay [4] has the same target. Put plainly: flow cytometry on A549-huCEA cells, FITC-conjugated anti-human IgG F(ab')2 secondary antibody, median fluorescence intensity. The procedure: as §1
The target of assay [5] is T2, human CD3 on Jurkat cells. As to the kind of experiment: flow cytometry on Jurkat cells (CD3+), PE-conjugated anti-human IgG Fcγ secondary antibody, median fluorescence intensity. The procedure: (§2) Briefly, cells were harvested, counted, checked for viability and resuspended at 2×10⁶ cells/ml in FACS buffer (100 μl PBS 0.1% BSA).
For assay [6], the target named is T3, human MCSP (Melanoma-associated Chondroitin Sulfate Proteoglycan) on tumor cells (human, UniProt Q6UVK1 30-2322).
T3 construct: whole, on cells; Cell surface antigen on human tumor cell lines A375 (high), MV-3 (medium), HCT-116 (low); also called CSPG4
T3 sequence (Q6UVK1 30-2322): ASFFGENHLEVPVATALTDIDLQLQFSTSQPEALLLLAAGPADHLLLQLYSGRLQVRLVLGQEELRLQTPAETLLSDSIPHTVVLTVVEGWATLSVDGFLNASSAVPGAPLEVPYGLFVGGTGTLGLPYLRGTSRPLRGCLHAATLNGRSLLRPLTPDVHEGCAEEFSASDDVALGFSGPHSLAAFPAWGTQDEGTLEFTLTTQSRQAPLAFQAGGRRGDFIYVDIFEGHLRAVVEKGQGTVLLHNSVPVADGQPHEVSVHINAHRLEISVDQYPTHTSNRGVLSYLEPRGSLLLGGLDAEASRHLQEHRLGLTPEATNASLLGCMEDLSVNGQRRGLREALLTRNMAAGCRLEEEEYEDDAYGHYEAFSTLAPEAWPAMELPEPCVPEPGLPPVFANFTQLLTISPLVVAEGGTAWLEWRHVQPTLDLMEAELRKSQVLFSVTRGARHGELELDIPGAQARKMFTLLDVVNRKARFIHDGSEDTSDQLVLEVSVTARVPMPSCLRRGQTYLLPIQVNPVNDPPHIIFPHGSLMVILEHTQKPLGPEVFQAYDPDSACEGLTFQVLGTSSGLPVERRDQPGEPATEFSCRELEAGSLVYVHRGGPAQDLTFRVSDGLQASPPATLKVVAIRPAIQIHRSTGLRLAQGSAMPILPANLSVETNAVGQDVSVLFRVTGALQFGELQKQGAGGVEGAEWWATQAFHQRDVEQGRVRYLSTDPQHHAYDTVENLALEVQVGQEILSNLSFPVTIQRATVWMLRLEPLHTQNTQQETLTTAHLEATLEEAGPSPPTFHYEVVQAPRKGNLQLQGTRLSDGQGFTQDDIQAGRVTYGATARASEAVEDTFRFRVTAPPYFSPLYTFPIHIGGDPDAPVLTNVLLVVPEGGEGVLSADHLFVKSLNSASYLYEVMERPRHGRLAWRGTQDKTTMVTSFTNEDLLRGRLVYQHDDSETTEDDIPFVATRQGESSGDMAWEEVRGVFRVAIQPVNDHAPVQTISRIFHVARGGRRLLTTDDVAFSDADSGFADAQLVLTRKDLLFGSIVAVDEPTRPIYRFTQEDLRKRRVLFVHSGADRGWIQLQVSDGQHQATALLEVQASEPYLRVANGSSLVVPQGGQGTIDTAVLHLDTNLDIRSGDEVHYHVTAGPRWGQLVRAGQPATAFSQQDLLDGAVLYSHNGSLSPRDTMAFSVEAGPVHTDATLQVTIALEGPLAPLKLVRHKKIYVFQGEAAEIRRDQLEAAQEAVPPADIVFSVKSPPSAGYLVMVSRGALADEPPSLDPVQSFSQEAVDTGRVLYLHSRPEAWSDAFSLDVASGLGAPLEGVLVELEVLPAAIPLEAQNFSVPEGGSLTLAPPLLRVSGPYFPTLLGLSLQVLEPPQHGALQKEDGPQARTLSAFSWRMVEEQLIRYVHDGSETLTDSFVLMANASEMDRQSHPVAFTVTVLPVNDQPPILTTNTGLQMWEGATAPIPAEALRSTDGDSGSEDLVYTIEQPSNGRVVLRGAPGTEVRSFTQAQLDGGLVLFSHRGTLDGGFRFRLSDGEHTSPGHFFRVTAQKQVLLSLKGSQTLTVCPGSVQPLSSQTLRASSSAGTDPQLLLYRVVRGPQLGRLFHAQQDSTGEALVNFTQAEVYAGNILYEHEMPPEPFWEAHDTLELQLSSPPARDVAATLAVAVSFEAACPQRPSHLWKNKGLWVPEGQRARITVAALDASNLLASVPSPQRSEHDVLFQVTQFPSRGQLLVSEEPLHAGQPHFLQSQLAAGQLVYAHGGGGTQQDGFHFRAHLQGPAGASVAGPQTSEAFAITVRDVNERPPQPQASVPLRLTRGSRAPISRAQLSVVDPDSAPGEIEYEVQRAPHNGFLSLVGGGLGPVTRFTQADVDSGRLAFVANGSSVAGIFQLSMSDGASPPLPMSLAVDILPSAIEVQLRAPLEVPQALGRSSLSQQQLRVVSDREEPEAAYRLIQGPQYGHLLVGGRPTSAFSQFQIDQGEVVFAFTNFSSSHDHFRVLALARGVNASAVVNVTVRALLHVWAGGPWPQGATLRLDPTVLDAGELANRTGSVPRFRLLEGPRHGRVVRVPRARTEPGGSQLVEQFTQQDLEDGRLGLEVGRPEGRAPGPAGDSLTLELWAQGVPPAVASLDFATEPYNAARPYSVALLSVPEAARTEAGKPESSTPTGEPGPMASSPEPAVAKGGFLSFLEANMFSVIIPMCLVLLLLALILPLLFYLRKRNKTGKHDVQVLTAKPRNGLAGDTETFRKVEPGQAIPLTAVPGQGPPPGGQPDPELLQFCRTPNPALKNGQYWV
As to the kind of experiment: flow cytometry on A375 cells (MCSP+), PE-conjugated anti-human IgG Fcγ secondary antibody, median fluorescence intensity. Here is the method: as §2

We go through two molecules from patent publication US20190002564A1 (Hoffmann-La Roche, published 2019).

T2 sequence (P07766 23-207): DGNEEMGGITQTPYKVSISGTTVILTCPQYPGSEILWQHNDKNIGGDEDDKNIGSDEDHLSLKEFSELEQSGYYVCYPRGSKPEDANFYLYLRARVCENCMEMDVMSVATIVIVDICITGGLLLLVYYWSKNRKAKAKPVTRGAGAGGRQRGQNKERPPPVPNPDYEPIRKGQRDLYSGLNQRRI

B1: CEA TCB (2+1 Crossfab-IgG P329G LALA inverted) (bispecific antibody)
chain 1: DIQMTQSPSSLSASVGDRVTITCKASAAVGTYVAWYQQKPGKAPKLLIYSASYRKRGVPSRFSGSGSGTDFTLTISSLQPEDFATYYCHQYYTYPLFTFGQGTKLEIKRTVAAPSVFIFPPSDEQLKSGTASVVCLLNNFYPREAKVQWKVDNALQSGNSQESVTEQDSKDSTYSLSSTLTLSKADYEKHKVYACEVTHQGLSSPVTKSFNRGEC
chain 2: QAVVTQEPSLTVSPGGTVTLTCGSSTGAVTTSNYANWVQEKPGQAFRGLIGGTNKRAPGTPARFSGSLLGGKAALTLSGAQPEDEAEYYCALWYSNLWVFGGGTKLTVLSSASTKGPSVFPLAPSSKSTSGGTAALGCLVKDYFPEPVTVSWNSGALTSGVHTFPAVLQSSGLYSLSSVVTVPSSSLGTQTYICNVNHKPSNTKVDKKVEPKSC
chain 3: not shown
chain 4: QVQLVQSGAEVKKPGASVKVSCKASGYTFTEFGMNWVRQAPGQGLEWMGWINTKTGEATYVEEFKGRVTFTTDTSTSTAYMELRSLRSDDTAVYYCARWDFAYYVEAMDYWGQGTTVTVSSASTKGPSVFPLAPSSKSTSGGTAALGCLVKDYFPEPVTVSWNSGALTSGVHTFPAVLQSSGLYSLSSVVTVPSSSLGTQTYICNVNHKPSNTKVDKKVEPKSCDKTHTCPPCPAPEAAGGPSVFLFPPKPKDTLMISRTPEVTCVVVDVSHEDPEVKFNWYVDGVEVHNAKTKPREEQYNSTYRVVSVLTVLHQDWLNGKEYKCKVSNKALGAPIEKTISKAKGQPREPQVCTLPPSRDELTKNQVSLSCAVKGFYPSDIAVEWESNGQPENNYKTTPPVLDSDGSFFLVSKLTVDKSRWQQGNVFSCSVMHEALHNHYTQKSLSLSPGK
notes: Two anti-CEA Fabs CH1A1A 98/99 2F1, one anti-CD3 crossfab (humanized CH2527), Fc knob-into-hole with P329G LALA; the conventional light chain occurs twice (vector ratio 1:2:1:1); also called CEA TCB antibody
For B1, in assay [1], the “EC50 [pM] 48 h for T-cell mediated killing of ASPC1 cells (LDH release, human PBMCs, E:T 10:1)” value was 846 pM; the “EC50 [pM] 48 h for T-cell mediated killing of BxPC-3 cells (LDH release, human PBMCs, E:T 10:1)” value turned out to be 3780 pM; the “EC50 [pM] 48 h for T-cell mediated killing of HPAFII cells (LDH release, human PBMCs, E:T 10:1)” value came to 667 pM. The binding result in assay [2] was “binds”. Further, in assay [3], the “EC50 of killing of A549-hCEA cells at 40 h, cynomolgus PBMCs as effector cells” value is 0.102 nM and the “EC50 of killing of A549-hCEA cells at 40 h, human PBMCs as effector cells” value amounted to 0.306 nM.

B2: untargeted TCB (bispecific antibody)
polypeptide chain; the text does not say which chain this SEQ ID NO is 1: not shown
polypeptide chain; the text does not say which chain this SEQ ID NO is 2: QAVVTQEPSLTVSPGGTVTLTCGSSTGAVTTSNYANWVQEKPGQAFRGLIGGTNKRAPGTPARFSGSLLGGKAALTLSGAQPEDEAEYYCALWYSNLWVFGGGTKLTVLSSASTKGPSVFPLAPSSKSTSGGTAALGCLVKDYFPEPVTVSWNSGALTSGVHTFPAVLQSSGLYSLSSVVTVPSSSLGTQTYICNVNHKPSNTKVDKKVEPKSC
polypeptide chain; the text does not say which chain this SEQ ID NO is 3: not shown
polypeptide chain; the text does not say which chain this SEQ ID NO is 4: not shown
notes: Control bispecific antibody that engages CD3 through humanized CH2527 but no second antigen; also called DP47GS TCB; DP47 GS TCB
Take B2: the binding result in assay [4] was “no binding (tested: log 6 [pM] (1000 nM))”; in assay [5], “binds”; in assay [6], “no binding (tested: about log 5.3 [pM] (about 200 nM))”.
